Among the data in US20240294593A1 (Genentech, published 2024) are Kd, koff and kon values, retold here.

Broadly, the Kd is the free concentration of one partner at which half of the binding sites on the other are occupied at equilibrium, for simple one-to-one binding. Higher therefore signals lower affinity. One may read the koff as the rate constant with which the complex falls apart. Higher therefore signals a short-lived complex. Broadly, the kon is the second-order rate constant of association. Lower therefore signals slow association.

B1: H1_L1.69 (antibody, V domains shown)
VH: EVQLVESGGGLVQPGGSLRLSCAASGFTFSSFGMHWVRQAPGKGLEWVSYISSGSSIIYYADSVKGRFTISRDNAKNSLYLQMNSLRAEDTAVYYCARGGRLVWSPDYWGQGTLVTVSS
VL: DIVMTQSPDSLAVSLGERATINCKSSQSLLNSGNQKNYLTWYQQKPGQPPKLLIYIASTRESGVPDRFTGSGSGTDFTLTISSLQAEDVAVYYCQNDYSYPFTFGSGTKLEIKR
notes: also called VL-W56I; Kabat 50
B2: H1_L1.80 (antibody, V domains shown)
VH: EVQLVESGGGLVQPGGSLRLSCAASGFTFSSFGMHWVRQAPGKGLEWVSYISSGSSIIYYADSVKGRFTISRDNAKNSLYLQMNSLRAEDTAVYYCARGGRLVWSPDYWGQGTLVTVSS
VL: DIVMTQSPDSLAVSLGERATINCKSSQSLLNSGNQKNYLTWYQQKPGQPPKLLIYWASHRESGVPDRFTGSGSGTDFTLTISSLQAEDVAVYYCQNDYSYPFTFGSGTKLEIKR
notes: also called VL-T59H; Kabat 53
B3: H1_L1.78 (antibody, V domains shown)
VH: EVQLVESGGGLVQPGGSLRLSCAASGFTFSSFGMHWVRQAPGKGLEWVSYISSGSSIIYYADSVKGRFTISRDNAKNSLYLQMNSLRAEDTAVYYCARGGRLVWSPDYWGQGTLVTVSS
VL: DIVMTQSPDSLAVSLGERATINCKSSQSLLNSGNQKNYLTWYQQKPGQPPKLLIYWASIRESGVPDRFTGSGSGTDFTLTISSLQAEDVAVYYCQNDYSYPFTFGSGTKLEIKR
notes: also called VL-T59I; Kabat 53
B4: H1_L1.70 (antibody, V domains shown)
VH: EVQLVESGGGLVQPGGSLRLSCAASGFTFSSFGMHWVRQAPGKGLEWVSYISSGSSIIYYADSVKGRFTISRDNAKNSLYLQMNSLRAEDTAVYYCARGGRLVWSPDYWGQGTLVTVSS
VL: DIVMTQSPDSLAVSLGERATINCKSSQSLLNSGNQKNYLTWYQQKPGQPPKLLIYHASTRESGVPDRFTGSGSGTDFTLTISSLQAEDVAVYYCQNDYSYPFTFGSGTKLEIKR
notes: also called VL-W56H; Kabat 50
B5: H1_L1.76 (antibody, V domains shown)
VH: EVQLVESGGGLVQPGGSLRLSCAASGFTFSSFGMHWVRQAPGKGLEWVSYISSGSSIIYYADSVKGRFTISRDNAKNSLYLQMNSLRAEDTAVYYCARGGRLVWSPDYWGQGTLVTVSS
VL: DIVMTQSPDSLAVSLGERATINCKSSQSLLNSGNQKNYLTWYQQKPGQPPKLLIYWASSRESGVPDRFTGSGSGTDFTLTISSLQAEDVAVYYCQNDYSYPFTFGSGTKLEIKR
notes: also called VL-T59S; Kabat 53
B6: H1_L1.81 (antibody, V domains shown)
VH: EVQLVESGGGLVQPGGSLRLSCAASGFTFSSFGMHWVRQAPGKGLEWVSYISSGSSIIYYADSVKGRFTISRDNAKNSLYLQMNSLRAEDTAVYYCARGGRLVWSPDYWGQGTLVTVSS
VL: DIVMTQSPDSLAVSLGERATINCKSSQSLLNSGNQKNYLTWYQQKPGQPPKLLIYWASDRESGVPDRFTGSGSGTDFTLTISSLQAEDVAVYYCQNDYSYPFTFGSGTKLEIKR
notes: also called VL-T59D; Kabat 53
B7: H1_L1.77 (antibody, V domains shown)
VH: EVQLVESGGGLVQPGGSLRLSCAASGFTFSSFGMHWVRQAPGKGLEWVSYISSGSSIIYYADSVKGRFTISRDNAKNSLYLQMNSLRAEDTAVYYCARGGRLVWSPDYWGQGTLVTVSS
VL: DIVMTQSPDSLAVSLGERATINCKSSQSLLNSGNQKNYLTWYQQKPGQPPKLLIYWASARESGVPDRFTGSGSGTDFTLTISSLQAEDVAVYYCQNDYSYPFTFGSGTKLEIKR
notes: also called VL-T59A; Kabat 53
B8: H1_L1.71 (antibody, V domains shown)
VH: EVQLVESGGGLVQPGGSLRLSCAASGFTFSSFGMHWVRQAPGKGLEWVSYISSGSSIIYYADSVKGRFTISRDNAKNSLYLQMNSLRAEDTAVYYCARGGRLVWSPDYWGQGTLVTVSS
VL: DIVMTQSPDSLAVSLGERATINCKSSQSLLNSGNQKNYLTWYQQKPGQPPKLLIYQASTRESGVPDRFTGSGSGTDFTLTISSLQAEDVAVYYCQNDYSYPFTFGSGTKLEIKR
notes: also called VL-W56Q; Kabat 50
B9: H1_L1.79 (antibody, V domains shown)
VH: EVQLVESGGGLVQPGGSLRLSCAASGFTFSSFGMHWVRQAPGKGLEWVSYISSGSSIIYYADSVKGRFTISRDNAKNSLYLQMNSLRAEDTAVYYCARGGRLVWSPDYWGQGTLVTVSS
VL: DIVMTQSPDSLAVSLGERATINCKSSQSLLNSGNQKNYLTWYQQKPGQPPKLLIYWASQRESGVPDRFTGSGSGTDFTLTISSLQAEDVAVYYCQNDYSYPFTFGSGTKLEIKR
notes: also called VL-T59Q; Kabat 53
B10: H1_L1.74 (antibody, V domains shown)
VH: EVQLVESGGGLVQPGGSLRLSCAASGFTFSSFGMHWVRQAPGKGLEWVSYISSGSSIIYYADSVKGRFTISRDNAKNSLYLQMNSLRAEDTAVYYCARGGRLVWSPDYWGQGTLVTVSS
VL: DIVMTQSPDSLAVSLGERATINCKSSQSLLNSGNQKNYLTWYQQKPGQPPKLLIYRASTRESGVPDRFTGSGSGTDFTLTISSLQAEDVAVYYCQNDYSYPFTFGSGTKLEIKR
notes: also called VL-W56R; Kabat 50
B11: H1_L1.75 (antibody, V domains shown)
VH: EVQLVESGGGLVQPGGSLRLSCAASGFTFSSFGMHWVRQAPGKGLEWVSYISSGSSIIYYADSVKGRFTISRDNAKNSLYLQMNSLRAEDTAVYYCARGGRLVWSPDYWGQGTLVTVSS
VL: DIVMTQSPDSLAVSLGERATINCKSSQSLLNSGNQKNYLTWYQQKPGQPPKLLIYWASVRESGVPDRFTGSGSGTDFTLTISSLQAEDVAVYYCQNDYSYPFTFGSGTKLEIKR
notes: also called VL-T59V; Kabat 53
B12: H1_L1.72 (antibody, V domains shown)
VH: EVQLVESGGGLVQPGGSLRLSCAASGFTFSSFGMHWVRQAPGKGLEWVSYISSGSSIIYYADSVKGRFTISRDNAKNSLYLQMNSLRAEDTAVYYCARGGRLVWSPDYWGQGTLVTVSS
VL: DIVMTQSPDSLAVSLGERATINCKSSQSLLNSGNQKNYLTWYQQKPGQPPKLLIYSASTRESGVPDRFTGSGSGTDFTLTISSLQAEDVAVYYCQNDYSYPFTFGSGTKLEIKR
notes: also called VL-W56S; Kabat 50
B13: H1_L1.73 (antibody, V domains shown)
VH: EVQLVESGGGLVQPGGSLRLSCAASGFTFSSFGMHWVRQAPGKGLEWVSYISSGSSIIYYADSVKGRFTISRDNAKNSLYLQMNSLRAEDTAVYYCARGGRLVWSPDYWGQGTLVTVSS
VL: DIVMTQSPDSLAVSLGERATINCKSSQSLLNSGNQKNYLTWYQQKPGQPPKLLIYDASTRESGVPDRFTGSGSGTDFTLTISSLQAEDVAVYYCQNDYSYPFTFGSGTKLEIKR
notes: also called VL-W56D; Kabat 50

In the assay the target is T1, human PD-1-His (human, UniProt Q15116 25-167, limits assumed).
T1 construct: Antigen of the Octet assays; not shown: His tag
T1 sequence (Q15116 25-167 limits assumed): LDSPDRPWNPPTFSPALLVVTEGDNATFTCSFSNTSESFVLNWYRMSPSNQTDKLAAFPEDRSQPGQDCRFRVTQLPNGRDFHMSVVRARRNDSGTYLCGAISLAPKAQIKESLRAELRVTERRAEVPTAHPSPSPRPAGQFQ
Kind of assay: Octet [D00120 Figure 65H]. An excerpt: In particular, anti-human IgG-Fc (AHC) biosensors were used to capture the test articles and dipped into multiple concentrations of PD-1.
For B1, the affinity, expressed as Kd, was 25.9 nM; the koff was 0.00244 s⁻¹; the kon was 94400 M⁻¹ s⁻¹.

Consider B2, for which the Kd worked out at 51 nM, the koff turned out to be 0.00578 s⁻¹ and the kon came to 113000 M⁻¹ s⁻¹.

As to B3, binding was characterised by a dissociation constant (Kd) of 56.8 nM, the koff worked out at 0.00581 s⁻¹ and the kon turned out to be 102000 M⁻¹ s⁻¹.

In turn, B4 gave a Kd of 30.9 nM, a koff of 0.00281 s⁻¹ and a kon of 90700 M⁻¹ s⁻¹.

Take B5: the Kd was 55 nM, the koff is 0.00512 s⁻¹ and the kon turned out to be 93100 M⁻¹ s⁻¹.

In turn, B6 registered a Kd of 51.4 nM, a koff of 0.00606 s⁻¹ and a kon of 118000 M⁻¹ s⁻¹.

B7 gave a Kd of 50.3 nM, a koff of 0.00535 s⁻¹ and a kon of 106000 M⁻¹ s⁻¹.

B8 displayed a Kd of 47.1 nM, a dissociation rate constant (koff) of 0.0043 s⁻¹ and a kon of 91400 M⁻¹ s⁻¹.

B9 came in with a Kd of 55.5 nM, a koff of 0.00731 s⁻¹ and a kon of 132000 M⁻¹ s⁻¹.

Molecule B10 gave a Kd of 265 nM, a koff of 0.0244 s⁻¹ and a kon of 92300 M⁻¹ s⁻¹.

B11 returned a Kd of 45.3 nM, a koff of 0.00496 s⁻¹ and a kon of 110000 M⁻¹ s⁻¹.

With B12, the Kd amounted to 60.3 nM, the koff was 0.00348 s⁻¹ and the kon turned out to be 57700 M⁻¹ s⁻¹.

Take B13: the Kd is 51.6 nM, the koff was found to be 0.00455 s⁻¹ and the kon is 88100 M⁻¹ s⁻¹.
